The source of these data is article PMC8041466.

Experiment [1] has as its target Cytotect (HCMV-IgG hyperimmunoglobulin preparation, human plasma pool, polyclonal IgG) (human). Nature of the experiment: flow cytometry on cells; same set-up; pairs of the vFcγR on infected cells with Cytotect IgG.
The target of experiment [2] is Rituximab (humanized anti-hCD20 IgG1) (human). The experiment is described as follows: flow cytometry on cells; same set-up; pairs of the CD4-tailed vFcγR on the cells with Rtx.
Rituximab (humanized anti-hCD20 IgG1) (human), sequence (heavy, as listed by the source, chain 1 of 2): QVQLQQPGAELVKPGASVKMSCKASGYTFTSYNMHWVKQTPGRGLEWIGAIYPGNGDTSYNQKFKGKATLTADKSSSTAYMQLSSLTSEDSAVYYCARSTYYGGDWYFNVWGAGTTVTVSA
Rituximab (humanized anti-hCD20 IgG1) (human), sequence (light, as listed by the source, chain 2 of 2): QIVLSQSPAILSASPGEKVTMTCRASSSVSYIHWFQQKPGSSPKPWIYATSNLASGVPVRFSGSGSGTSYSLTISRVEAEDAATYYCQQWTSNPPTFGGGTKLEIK

The substance “gp68 natively expressed on HCMV AD169/pBAC2 mutant-infected MRC-5 cells (from UniProt P16739 24-345) (natural protein)” returned a percent reduction of FcγRIII binding in experiment [1] of 60%.

Turning to “gp68-CD4 (gp68 with the transmembrane and cytosolic domains of human CD4)”, the percent reduction of FcγRIII binding in experiment [2] came out at 60%.
